According to US20220112285A1 (UNIVERSITY OF BIRMINGHAM, published 2022):

Key:
[1] = molecular target: T1, recombinant monomeric human G6b-B (human, UniProt O95866 18-142, limits assumed); assay: Fab as analyte over a G6b-B monomer channel (RU read-out; method not named), two stage reaction model
T1 construct: also called G6b-B monomer; monomeric G6b-B
T1 sequence (looked up): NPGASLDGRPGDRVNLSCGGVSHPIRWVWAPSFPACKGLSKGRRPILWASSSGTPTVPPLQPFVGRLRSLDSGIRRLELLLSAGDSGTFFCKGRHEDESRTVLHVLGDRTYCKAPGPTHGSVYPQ

[2] = molecular target: T2, recombinant dimeric human G6b-B (human, UniProt O95866 18-142, limits assumed); assay: Fab as analyte over a G6b-B dimer channel (RU read-out; method not named), two stage reaction model
T2 construct: also called G6b-B dimer; dimeric G6b-B
T2 sequence (looked up): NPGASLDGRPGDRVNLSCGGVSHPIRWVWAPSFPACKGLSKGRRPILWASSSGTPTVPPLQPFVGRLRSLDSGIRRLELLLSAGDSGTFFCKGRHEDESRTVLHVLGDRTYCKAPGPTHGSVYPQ

[3] = molecular target: the molecule itself; assay: X-ray crystal structure; dimer believed to result from binding of the heparin oligosaccharide DP12
Protocol: The preformed G6b-B:Fab complex at 12 mg/ml, in a buffer solution of 20 mM HEPES, 75 mM NaCl, pH 7.1 was incubated for 1 hour at 4° C. with 2 mM DP12 (Iduron Cat. No. HO12). This protein sample was then microfuged at 16,000 g, for 10 minutes at 4° C., before drops were set up using 150 nl sample and 100 nl reservoir solution. Reservoir conditions were 50 mM MES pH6.2, 10% PEG 550MME, 5% glycerol, and 50 mM CaCl₂. Crystallisation plates were incubated at 20° C. and flat plate crystals appeared within 3 days. The crystal was harvested straight out of the growth drop into liquid nitrogen. Diffraction data were collected at 100K on beamline 103 at Diamond Light Source and processed by XDS1 and Aimless2 via AutoPROC3. The crystal had the space group C2 with the cell dimensions of a=183.80, b=72.34, c=131.04, alpha=90.0°, beta=124.52°, gamma=90.0°, and gave a 97% complete dataset to 3.1 Å.

[4] = molecular target: T3, mouse G6b-B (mouse, UniProt D7PDD4 18-140, limits assumed); assay: plate binding assay (coated protein, HRP anti-mouse IgG, TMB, A450), FIG. 8
T3 construct: construct not described
T3 sequence (looked up): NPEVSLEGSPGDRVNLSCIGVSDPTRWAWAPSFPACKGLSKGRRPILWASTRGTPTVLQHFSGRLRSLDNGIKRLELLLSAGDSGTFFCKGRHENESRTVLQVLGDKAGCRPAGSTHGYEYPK
Protocol: FIG. 8—illustrates that the 17-4 antibody robustly binds to recombinant monomeric and dimeric human G6b-B, but not to mouse G6b-B in an in vitro binding assay. Wells of 96-well plate were coated with the indicated proteins overnight. Following blocking, wells were incubated with the indicated anti-G6b monoclonal antibodies (10 μg/ml) or IgG control. Antibody binding was detected with HRP-conjugated anti-mouse antibody and 3,3,5,5-tetramethylbenzidine (TMB) substrate; absorbance was measured with a plate reader at 450 nm.
Wells of 96-well Nunc MaxiSorp™ plates (Thermo Scientific) were coated overnight with 50 μl of indicated proteins, diluted in PBS at a concentration of 5 μg/ml. Plates were washed three times with Tris buffered saline (TBS) containing 0.1% Tween 20 (TBS-T) and blocked for 1.5 h at 37° C. with 2% fat free milk in TBS, 0.02% Tween 20. After one washing step, wells were incubated with the indicated anti-G6b monoclonal antibodies (10 μg/ml) or IgG control, diluted in 3% BSA in TBS-T for 1.5 h at RT. After five washing steps, wells were incubated with HRP-conjugated anti-mouse IgG antibody (Sigma) for 1 h at RT at low agitation. Plates were washed seven times and signals were developed with TMB. The reaction was stopped by addition of 2 M H₂SO₄ (50 μl/well) and absorbance at 450 nm and 570 nm (background) was measured with a Versa max plate reader (Molecular Devices).

B1: His-tagged recombinant anti-G6b-B Fab fragment of antibody 17-4 (Fab, V domains shown)
VH: EVQLQQSGAELVKPGASVKLSCTASGFNIKETYIHWVKQRPEQGLEWIGRIDPADVYGRYDPKFQGKATITADTSSNSAYLQVSSLTSEDTAVYYCARSYGSSYGIDYWGQGTSVTVSS
VL: DIQMTQTTSSLSASLGDRVTISCRASQDISNYLNWYQQKPDGTVKLLIYYTSTLHSGVPSRFSGSGSGTDYSLTISNLEQEDVATYFCQQGYTLPWTFGGGTKLEIKR
notes: also called 17-4 Fab; 17-4 Fabs
What does the source list for B1?
Kd [1]: 0.126 nM; Kd [2]: 0.262 nM

B2: G6b-B ECD (18-133, [N32D, S67A, S68A, S69A, T71A]) (receptor, human, UniProt O95866 18-133, looked up)
chain: NPGASLDGRPGDRVDLSCGGVSHPIRWVWAPSFPACKGLSKGRRPILWAAAAGAPTVPPLQPFVGRLRSLDSGIRRLELLLSAGDSGTFFCKGRHEDESRTVLHVLGDRTYCKAPG
notes: Expressed in HEK293 6E cells and used for the crystal structure with the 17-4 Fab and the heparin oligosaccharide DP12; also called G6b ECD; G6b-ECD
Does B2 bind [3]?
Result: binds

B3: anti-G6b mouse monoclonal antibody 17-4 (antibody, mouse IgG1, kappa, V domains shown)
VH: EVQLQQSGAELVKPGASVKLSCTASGFNIKETYIHWVKQRPEQGLEWIGRIDPADVYGRYDPKFQGKATITADTSSNSAYLQVSSLTSEDTAVYYCARSYGSSYGIDYWGQGTSVTVSS
VL: DIQMTQTTSSLSASLGDRVTISCRASQDISNYLNWYQQKPDGTVKLLIYYTSTLHSGVPSRFSGSGSGTDYSLTISNLEQEDVATYFCQQGYTLPWTFGGGTKLEIKR
notes: The entries may include leader peptides, since VH CDR2 residues are numbered 69 and 71; no cleavage site is stated; also called exemplary antibody 17-4; mAb 17-4
Does B3 bind [4]?
Result: no binding (tested: 10 µg/ml)
